Laboratory results reported in paper doi:10.1101/2021.12.02.470928.
Where two headings read alike, the source gives them in different places.

Key:
Test in all cases: BLI
PAD A114K [1] = biological target: PAD A114K (UniProt Q96QC0)
PAD M141F [2] = biological target: PAD M141F (UniProt Q96QC0)
PAD M141W [3] = biological target: PAD M141W (UniProt Q96QC0)
PAD K122A [4] = biological target: PAD K122A (UniProt Q96QC0)
PAD K122A [5] = biological target: PAD K122A (UniProt Q96QC0); remark: listed apart in the source
PAD K109A = PAD K109A (UniProt Q96QC0)
PAD A114K [6] = biological target: PAD A114K (UniProt Q96QC0); remark: listed apart in the source
PAD M141F [7] = biological target: PAD M141F (UniProt Q96QC0); remark: listed apart in the source
PAD M141W [8] = biological target: PAD M141W (UniProt Q96QC0); remark: listed apart in the source
PAD K118A = PAD K118A (UniProt Q96QC0)
Sequence of PAD K118A (Q96QC0 1-148 K118A): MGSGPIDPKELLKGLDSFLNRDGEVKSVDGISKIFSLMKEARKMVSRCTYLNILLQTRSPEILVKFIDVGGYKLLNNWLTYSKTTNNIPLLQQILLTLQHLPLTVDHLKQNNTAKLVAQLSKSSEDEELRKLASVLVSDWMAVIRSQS

Sequence of PAD M141F (Q96QC0 1-148 M141F): as the sequence (Q96QC0 1-148 K118A) above, with A118K, M141F counted along it
Sequence of PAD M141W (Q96QC0 1-148 M141W): as the sequence (Q96QC0 1-148 K118A) above, with A118K, M141W counted along it
Sequence of PAD A114K (Q96QC0 1-148 A114K): as the sequence (Q96QC0 1-148 K118A) above, with A114K, A118K counted along it
Sequence of PAD K122A (Q96QC0 1-148 K122A): as the sequence (Q96QC0 1-148 K118A) above, with A118K, K122A counted along it
Sequence of PAD K109A (Q96QC0 1-148 K109A): as the sequence (Q96QC0 1-148 K118A) above, with K109A, A118K counted along it

- Kd (PAD A114K [1]): 52 µM
- Kd (PAD M141F [2]): 19 µM
- Kd (PAD M141W [3]): 24 µM
- Kd (PAD K122A [4]): 35 µM
- Kd (PAD K122A [5]): 35 µM
- Kd (PAD K109A): 27 µM
- Kd (PAD A114K [6]): 52 µM
- Kd (PAD M141F [7]): 19 µM
- Kd (PAD M141W [8]): 24 µM
- Kd (PAD K118A): 12 µM
Substance: biotinyl-MB0 peptide (MYC 16-33) (from UniProt P01106-2 16-33)
